Literature values in patent US20050255458A1, “Drug discovery assays based on the biology of chronic disease” (priority 2002, published 2005).

Key:
[1] = system: anagen hair follicles; details: Philpott 1996
[2] = system: reverse transmigration of PBMC across HUVEC

Molecule | scalp hair growth [1] | inhibition of reverse transendothelial migration [2]
IL-1α: interleukin 1α cytokine (protein, UniProt P01583 113-271, looked up) Interleukin-1 alpha: SAPFSFLSNVKYNFMRIIKYEFILNDALNQSIIRANDQYLTAAALHNLDEAVKFDMGAYKSSKDDAKITVILRISKTQLYVTAQDEDQPVLLKEMPEIPKTITGSETNLLFFWETHGTKNYFTSVAHPNLFIATKQDYWVCLAGGPPSITDFQILENQA | inhibition of scalp hair growth | 
soluble TF: soluble tissue factor (protein, UniProt P13726 33-251, looked up, extracellular domain, soluble tissue factor) extracellular domain: SGTTNTVAAYNLTWKSTNFKTILEWEPKPVNQVYTVQISTKSGDWKSKCFYTTDTECDLTDEIVKDVKQTYLARVFSYPAGNVESTGSAGEPLYENSPEFTPYLETNLGQPTIQSFEQVGTKVNVTVEDERTLVRRNNTFLSLRDVFGKDLIYTLYYWKSSSSGKKTAKTNTNEFLIDVDKGENYCFSVQAVIPSRTVNRKSTDSPVECMGQEKGEFRE |  | 69±2%
